Source: US20140315826A1, “POLYMERIC CONJUGATES OF C-1 INHIBITORS” (Belrose Pharma, Inc., priority 2012, published 2014)

Columns and labels:
C1 esterase [1] = target: T1, C1 esterase (UniProt P09871); assay: cell-based or functional assay
T1 sequence (looked up): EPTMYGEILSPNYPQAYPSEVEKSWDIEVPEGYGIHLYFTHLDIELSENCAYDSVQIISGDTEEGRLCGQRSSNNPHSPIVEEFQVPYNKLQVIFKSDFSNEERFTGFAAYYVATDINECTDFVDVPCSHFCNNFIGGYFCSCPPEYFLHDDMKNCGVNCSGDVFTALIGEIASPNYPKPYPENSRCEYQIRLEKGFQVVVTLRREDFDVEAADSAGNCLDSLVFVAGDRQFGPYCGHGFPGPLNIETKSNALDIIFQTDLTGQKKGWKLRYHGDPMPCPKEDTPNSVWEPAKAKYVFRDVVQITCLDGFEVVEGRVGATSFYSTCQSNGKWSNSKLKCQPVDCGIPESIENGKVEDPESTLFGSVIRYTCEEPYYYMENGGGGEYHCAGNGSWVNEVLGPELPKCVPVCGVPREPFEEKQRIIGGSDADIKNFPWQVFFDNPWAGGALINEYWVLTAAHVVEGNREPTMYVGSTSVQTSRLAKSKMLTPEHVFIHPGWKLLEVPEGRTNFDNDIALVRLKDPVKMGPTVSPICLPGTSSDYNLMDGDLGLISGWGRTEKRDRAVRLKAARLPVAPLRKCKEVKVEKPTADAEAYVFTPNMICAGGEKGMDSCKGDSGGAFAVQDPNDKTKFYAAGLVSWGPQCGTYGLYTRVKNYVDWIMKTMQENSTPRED

kallikrein [2] = target: T2, kallikrein (Homo sapiens, UniProt P03952); assay: cell-based or functional assay
Target sequence in this assay (P03952 20-638 limits assumed): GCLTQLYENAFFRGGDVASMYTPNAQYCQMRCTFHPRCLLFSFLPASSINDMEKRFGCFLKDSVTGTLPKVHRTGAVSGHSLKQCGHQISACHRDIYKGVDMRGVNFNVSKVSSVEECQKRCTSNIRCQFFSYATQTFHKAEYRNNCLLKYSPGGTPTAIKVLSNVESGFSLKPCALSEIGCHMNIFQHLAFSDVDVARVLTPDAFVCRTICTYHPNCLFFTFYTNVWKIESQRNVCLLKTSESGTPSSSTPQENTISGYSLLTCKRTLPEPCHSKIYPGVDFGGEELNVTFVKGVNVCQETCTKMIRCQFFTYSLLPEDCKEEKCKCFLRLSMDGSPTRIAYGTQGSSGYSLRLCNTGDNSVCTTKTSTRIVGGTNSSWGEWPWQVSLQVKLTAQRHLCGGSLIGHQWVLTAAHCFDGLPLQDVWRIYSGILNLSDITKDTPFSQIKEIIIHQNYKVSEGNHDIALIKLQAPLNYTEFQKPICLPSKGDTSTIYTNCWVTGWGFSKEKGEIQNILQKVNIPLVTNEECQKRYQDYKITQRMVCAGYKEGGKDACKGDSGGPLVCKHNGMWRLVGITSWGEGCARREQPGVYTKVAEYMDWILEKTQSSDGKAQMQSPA

C1 esterase [3] = target: T3, C1 esterase (Homo sapiens, UniProt P09871); assay: C1 INH activity assay: inhibition of C1 esterase activity; format: biochemical; details: for Activity of C1 Esterase inhibition U/mg: 96-well plate, 37° C., kinetic substrate cleavage
T3 sequence (P09871 16-688): T1 sequence (looked up)
Experimental: (§1) C1 INH activity was measured by the inhibition of C1 esterase and kallikrein activities. For the inhibition of C1 esterase activity, samples, standards, and controls were added to 96-well plate, and then C1-esterase was added. After 10 min incubation at 37° C., substrate of C1-eserasse was added. C1-esterase activity for cleavage of the substrate was monitored at 37° C. for 4 minutes kinetically. The higher C1 INH activity results in the lower C1 esterase activity or the lower cleavage rate of substrate. For the inhibition of kallikrein activity, EC50 was used to evaluate PEG-C1 INH activity. Lower EC50 value indicates higher activity of kallikrein inhibition.

kallikrein [4] = target: T2, kallikrein; assay: C1 INH activity assay: inhibition of kallikrein activity; format: biochemical; details: lower EC50 = higher activity
Experimental: as §1
Target sequence in this assay (P03952 20-638): as the sequence (P03952 20-638 limits assumed) above

[5] = Conjugate stability on SDS gel (heating, reduction, acid treatment); format: physicochemical
Experimental: The concentration of PEGylated C1 INH was determined by UV at 280 nm (extinction coefficient of C1 INH was 0.39 mL/mg·cm). Sample at 5 μg or 10 μg was loaded into the gel without sample reduction and heating for electrophoresis. In a separate experiment, the samples were heated at 70° C. for 7 minutes in the presence or absence of 75 mM β-mercaptoethanol in gel buffer. There was no evidence of conjugate breakdown under such conditions. […] The protein bands were visualized after simple blue stain. The density of the image was obtained on Molecular Dynamics. […] There were eight PEG (20 or 30k) strands attached per C1 INH as analyzed SEC-MALS.

Sequence of C1 Esterase Inhibitor (C1 INH), native (P05155 23-500 limits assumed): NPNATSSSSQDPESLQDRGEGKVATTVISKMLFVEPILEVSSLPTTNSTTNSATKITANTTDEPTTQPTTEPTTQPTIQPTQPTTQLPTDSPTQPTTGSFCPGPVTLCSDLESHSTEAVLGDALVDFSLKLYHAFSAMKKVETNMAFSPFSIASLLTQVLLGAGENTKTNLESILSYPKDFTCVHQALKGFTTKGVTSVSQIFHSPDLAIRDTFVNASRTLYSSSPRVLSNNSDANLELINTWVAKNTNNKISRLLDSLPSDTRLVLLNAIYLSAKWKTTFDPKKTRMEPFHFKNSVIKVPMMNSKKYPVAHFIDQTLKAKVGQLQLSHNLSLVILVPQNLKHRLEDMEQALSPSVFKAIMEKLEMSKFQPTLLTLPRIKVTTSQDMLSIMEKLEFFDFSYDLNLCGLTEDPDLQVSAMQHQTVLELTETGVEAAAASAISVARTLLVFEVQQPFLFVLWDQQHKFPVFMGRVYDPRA
Sequence of PEG-20k-Glycan-C1 INH (60 mg scale) (P05155 23-500 limits assumed): as above
Sequence of PEG-20k-Glycan-C1 INH (5 mg scale) (P05155 23-500 limits assumed): as above

Row | Substance | Activity of C1 Esterase inhibition, % C1 INH activity (C1 esterase [1]) [%] | Activity of C1 Esterase inhibition, U/mg (C1 esterase [1]) [U/mg] | Activity of Kallikrein inhibition, % C1 INH activity (kallikrein [2]) [%] | Activity of Kallikrein inhibition, EC50 (kallikrein [2]) [µM] | Activity of C1 Esterase inhibition U/mg (C1 esterase [3]) [U/mg] | EC50 (kallikrein [4]) [nM] | further results
1 | C1 Esterase Inhibitor (C1 INH), native (from UniProt P05155 23-500) | 100 | 7 | 100 | 0.2 |  |  | 
2 | PEG-20k-Glycan-C1 INH (5 mg scale): Same PEG-20k-hydrazide glycan conjugate of C1 INH prepared at 5 mg scale; PEG number pending |  |  |  |  | 6.6 |  | 
3 | PEG-20k-Glycan-C1 INH (60 mg scale) (from UniProt P05155 23-500) | 73 | 5.1 | 67 | 0.3 |  |  | 
4 | PEG-20k-Glycan-C1 INH (60 mg scale): C1 INH oxidized with periodate at glycan and conjugated with PEG-hydrazide 20k; eight PEG strands per C1 INH |  |  |  |  | 5.1 | 300 | % C1 INH activity on C1 esterase inhibition, small scale (C1 esterase [3]; small scale batch, relative to native C1 INH): 97%; Stability of conjugate under acidic conditions ([5]; 0.1% TFA or sodium acetate, pH 4.7): releasable; Stability of conjugate to heating and reducing at neutral pH ([5]; 70° C. for 7 minutes, with or without 75 mM β-mercaptoethanol, SDS gel): stable

Second part, led by results:

Row | Activity of C1 Esterase inhibition, % C1 INH activity (C1 esterase [1]) [%] | Activity of C1 Esterase inhibition, U/mg (C1 esterase [1]) [U/mg] | Activity of Kallikrein inhibition, % C1 INH activity (kallikrein [2]) [%] | Activity of Kallikrein inhibition, EC50 (kallikrein [2]) [µM] | Activity of C1 Esterase inhibition U/mg (C1 esterase [3]) [U/mg] | EC50 (kallikrein [4]) [nM] | Substance | further results
5 |  |  |  |  | 7.0 | 200 | C1 INH: C1 Esterase Inhibitor obtained from Athens Research & Technology, MW 73000 Da by MALDI; unmodified reference protein | 
6 | 94 | 6.6 |  |  |  |  | PEG-20k-Glycan-C1 INH (5 mg scale) (from UniProt P05155 23-500) | % C1 INH activity on C1 esterase inhibition (small scale) (C1 esterase [1]): 97%
